Experimental data: patent US12624396B2, “Methods for alleviating facioscapulohumeral dystrophy (FSHD) by an antisense nucleic acid molecule inhibiting the expression of double homeobox 4 (DUX4)” (Fred Hutchinson Cancer Center, priority 2010, dated 2026)
Entries after “also recorded” stand apart in the source; their conditions may differ.

What was measured:
[1] = system: control human muscle cells; assay: Expression of DUX4-s in control human muscle cells, apoptosis/toxicity; type: cell-based; conditions: 48 hrs, data not shown
Description: Both the mRNA analysis and the immunodetection indicate that approximately 0.1% of FSHD muscle nuclei express DUX4 mRNA and protein. This could represent transient bursts of expression or stochastic activation of expression that leads to cell death, or both. […] When DUX4 is expressed in control human muscle cells by lenti-viral delivery, the DUX4 protein is distributed relatively homogeneously during the first 24 hrs and then aggregates in nuclear foci at 48 hrs when the cells are undergoing apoptosis (data not shown). These DUX4 nuclear foci associated with apoptosis are present in the nuclei of FSHD muscle cultures.

[2] = system: DUX4 binding sites from TRIM48 and ZSCAN4; assay: Luciferase assay, pGL3-promoter reporter with TRIM48 or ZSCAN4 DUX4 binding sites in RD cells; type: cell-based, human; conditions: RD cells co-transfected with DUX4-s alone; FIG. 16
Procedure: (§1) Transient DNA transfections of RD cells were performed using SuperFect (Qiagen) according to manufacturer specifications. Briefly, 3×10^5 cells were seeded per 35 mm plate the day prior to transfection. […] Cells were lysed 24 h post-transfection in Passive Lysis Buffer (Promega). Luciferase activities were quantified using reagents from the Dual-Luciferase Reporter Assay System (Promega) following manufacturer's instructions. Light emission was measured using BioTek Synergy2 luminometer. Luciferase data are given as the averages ±SD of at least triplicates.
The 31 bp DUX4 binding site from TRIM48 (SEQ ID NO:96) or ZSCAN4 (SEQ ID NO:97) were inserted into the luciferase reporter construct upstream of the SV40 promoter, as shown in FIG. 16A.
(A) reporter construct structure; Genomic fragments near the TRIM48 (B) and ZSCAN4 genes (C) containing DUX4 binding sites were cloned into pGL3-promoter reporter vector (schematic, top) and transfected into human rhabdomyoscaroma cell line RD. […] TRIM48mut and ZSCAN4mut, mutated binding sites. Luciferase activity was set relative to control.

[3] = molecular target: T1, DUX4-fl (Homo sapiens, UniProt Q9UBX2); assay: Luciferase assay, ZSCAN4 1.9 kb enhancer/promoter reporter, co-transfection of DUX4-fl and DUX4-s; type: cell-based; conditions: equal amounts of DUX4-fl and DUX4-s co-transfected in RD cells; FIG. 17C
T1 construct: expressed in transfected cells; host or cells: human rhabdomyosarcoma cell line RD, transient transfection with pCS2-DUX4-fl
Procedure: as §1
To determine whether DUX4 binding might directly regulate transcription of select genes, we cloned the 1.9 kb enhancer and promoter region of the ZSCAN4 gene that includes four DUX4 binding sites as follows: (DUX4 binding sites are underlined.)
The 1.9kb enhancer and promoter region of the ZCAN4 gene that includes the four DUX4 binding sites from ZCAN4 (SEQ ID NO:100) were inserted upstream of the luciferase reporter construct (pGL3 basic luciferase vector) as shown in FIG. 17A. […] Real-time RT-PCR quantitation is reported relative to internal standard RPL13a. All data represent mean+/−SD from at least triplicates.

[4] = system: DUX4-fl target genes in FSHD muscle cells; assay: Knockdown of DUX4-fl targets in FSHD muscle cells by lentiviral DUX4-s; type: cell-based, human; conditions: FSHD cultured muscle cells transduced with lenti-DUX4-s, 48 hours of differentiation; real-time RT-PCR; FIG. 21
Procedure: Simultaneously, cells were transduced by lentivirus carrying DUX4-s or GFP along with 8 μg/mL polybrene. Cells were washed and changed to plain differentiation media after 24 hours. Cells were harvested for RNA after 48 hours of differentiation.
One microgram of total RNA was reverse transcribed into first strand cDNA in a 20 uL reaction using SuperScript III (Invitrogen) and digested with 1 U of RNase H (Invitrogen) for 20 min at 37° C. cDNA was diluted and used for quantitative PCR with iTaq SYBR Green supermix with ROX (Bio-Rad). The relative expression levels of target genes were normalized to those of ribosomal protein L13A (RPL13A) by 2^ΔCt. Undetermined values were equated to zero. Standard deviations from the mean of the ΔCt values were calculated from triplicates. PCR primers used for detecting the transcripts of the selected genes are listed in Supplementary methods.
Real-time RT-PCR quantitation of three DUX4 target genes, (A) PRAMEF1, (B) RFPL2 and (C) MBD3L2 in FSHD cultured muscle cells transduced with lenti-GFP or lenti-DUX4-s or untransduced. Abundance of targets was calculated relative to internal standard RPL13a and then set as percentages relative to the untransduced condition. Values represent mean+/−SEM from three independent experiments.

[5] = system: endogenous retroelement MaLR transcripts; assay: MaLR expression analysis after lentiviral transduction of primary human myoblasts; type: cell-based; conditions: lentiviral transduction into primary human myoblasts; real-time RT-PCR relative to RPL13a; FIG. 17E
[6] = system: DUX4 core binding motif oligos (CSF1R, TRIM48); assay: Electromobility shift assay with in vitro translated protein; set-up: species or system human; conditions: radiolabeled CSF1R and TRIM48 oligos, FIG. 15D
Procedure: EMSA was performed with ^32P-labeled 31-bp oligonucleotides from endogenous genomic sequences containing the putative DUX4 binding site as probes (sequences below; only forward shown). Radiolabeled probes were incubated with in vitro translated protein generated from pCS2-DUX4-fl or pCS2-DUX4-s^2 vectors using the TNT SP6 Coupled Wheat Germ Extract System (Promega) according to manufacturer's instructions. To obtain supershift of protein-DNA complexes, 0.1 μg of E14-3 anti-DUX4 rabbit monoclonal antibody was added to the mixtures. For competition experiments, excess unlabeled probes of either wild-type or mutant sequences were included in the binding reaction. The gels were prepared and run as previously described (Knoepfler et al., Nucleic Acids Res 27:3752-3761 (1999)).
Supershift with DUX4 antibody E14-3 confirmed the specificity of binding. […] (d) DUX4-s also binds the same core motifs; left, CSF1R; right, TRIM48. Supershift with anti-DUX4 N-terminus antibody E14-3 confirmed specificity of binding.

[7] = system: control human muscle cells; conditions: cultured human skeletal muscle cells; Geng et al. 2011; cited from earlier work

T1 sequence (Q9UBX2 whole entry): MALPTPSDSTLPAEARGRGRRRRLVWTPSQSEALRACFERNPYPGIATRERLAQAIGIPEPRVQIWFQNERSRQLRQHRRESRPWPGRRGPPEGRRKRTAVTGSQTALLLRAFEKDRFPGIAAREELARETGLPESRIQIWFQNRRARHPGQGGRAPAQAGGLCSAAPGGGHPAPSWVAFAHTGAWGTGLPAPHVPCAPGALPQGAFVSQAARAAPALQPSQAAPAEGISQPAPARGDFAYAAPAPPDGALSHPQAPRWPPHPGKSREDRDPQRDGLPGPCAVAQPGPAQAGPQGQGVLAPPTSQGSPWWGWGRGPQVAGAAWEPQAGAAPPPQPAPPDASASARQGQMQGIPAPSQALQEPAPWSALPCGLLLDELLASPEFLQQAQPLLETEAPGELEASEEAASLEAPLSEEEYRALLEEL

B1: DUX4-s: short splice form of DUX4 (SEQ ID NO:68) keeping the N-terminal double-homeobox domains, lacking the C-terminal domain; expressed from vector (protein, listed as Homo sapiens)
chain: MALPTPSDSTLPAEARGRGRRRRLVWTPSQSEALRACFERNPYPGIATRERLAQAIGIPEPRVQIWFQNERSRQLRQHRRESRPWPGRRGPPEGRRKRTAVTGSQTALLLRAFEKDRFPGIAAREELARETGLPESRIQIWFQNRRARHPGQGGRAPAQV
- induction of apoptosis [1]: does not induce apoptosis
- activation of luciferase expression [2]: did not activate expression
- effect on DUX4-fl induced luciferase activity [3]: diminishes luciferase activity; also recorded: interfered with the activity of DUX4-fl
- endogenous expression of DUX4-fl target genes (PRAMEF1, RFPL2, MBD3L2) [4]: inhibited the endogenous expression of the target genes; also recorded: blocks expression of DUX4-fl target genes
- upregulation of endogenous MaLR transcripts [5]: No upregulation
- binding to DUX4 core binding site (EMSA) [6]: specifically binds the same core binding site as DUX4-fl
- toxicity of forced over-expression [7]: not toxic
